Columns and labels:
[1] = target: T1, stabilized pre-fusion RSV F glycoprotein (DS-Cav1) (Human respiratory syncytial virus A, …, stabilised); assay: cell-based or functional assay
[2] = target: T1, stabilized pre-fusion RSV F …; assay: SPR; Biacore T200; D25 antibody on Protein A chip captures 50 RU DS-Cav1; RB1 Fab flowed in two-fold dilutions 0.31-20 nM, 50 ul/min; 1:1 Langmuir fit; details: both partners purified
[3] = target: T2, post-fusion RSV F glycoprotein (F∆FP) (Human respiratory syncytial virus A, …, stabilised); assay: SPR; Biacore T200; Synagis antibody on Protein A chip captures 50 RU post-fusion F; RB1 Fab flowed in two-fold dilutions 200-3.12 nM, 40 s dissociation; 1:1 Langmuir fit; details: both partners purified
T2 construct: RSV fusion (F) glycoprotein, soluble post-fusion form F∆FP; post-fusion F structure PDB 3RRR; also called post-fusion F protein; RSV F post-Fusion; source: Expi293F, transfected, purified from culture supernatant (Ni-Sepharose, Strep-Tactin, thrombin digestion, Superdex 200)

B1: RB1, fully human IgG1 monoclonal antibody (antibody, V domains shown)
VH: EVQLVESGGGLVRPGRSLRLSCTVSGFSFDDSAMSWVRQAPGKGLEWISFIKSKTYGGTKEYAASVKGRFTISRDDSKNIAYLQMNSLKTEDTAVYYCTRGAPYGGNSDYYYGLDVWGQGTTVTVSS
VL: DIQMTQSPSSLSASVGDRVTITCRTSQDVRGALAWYQQKPGKAPKLLIFDASSLETGVPSRFSGSGSGTVFTLTISSLQPEDFAAYYCQQFLDFPFTFGQGTRLEIK
In the case of B1, the “microneutralization of RSV A (Long) on HEp-2 cells, IC50 (F on the virus, strain Long)” value [1] is reported as 2.9 ng/mL and the “microneutralization of RSV B (Washington) on HEp-2 cells, IC50 (F on the virus, subtype B strain)” value [1] is reported as 1.7 ng/mL.

B2: RB1 fragment antigen-binding (Fab) (Fab, V domains shown)
VH: B1 VH
VL: B1 VL
notes: Fab heavy chain of RB1 (VH as the heavy chain of m1, plus CH1 of human IgG1 up to the cleavage site); light chain of RB1, as the light chain of m1; The preparation of the Fab is told for the crystallisation; also called RB1 Fab; monovalent RB1 Fab; source: RB1 mAb (CHO-3E7, Protein A purified) cleaved into monovalent Fab with the Fab Preparation Kit (Pierce)
With B2 the Kd [2] was 0.022 nM, the koff [2] was 0.000164 s⁻¹ and the kon [2] was 7.35e+06 M⁻¹ s⁻¹. For the same binder, the Kd [3] was 135 nM, the koff [3] was 0.15 s⁻¹ and the kon [3] was 1.12e+06 M⁻¹ s⁻¹.

From PMC6742648, “A potent broadly neutralizing human RSV antibody targets conserved site IV of the fusion glycoprotein” (Nature Communications, 2019)
